Measured values taken from paper PMC6379675, “Structural insights into chromosome attachment to the nuclear envelope by an inner nuclear membrane protein Bqt4 in fission yeast” (Nucleic Acids Research, 2018).
Residue numbers refer to the chain shown, from its start. Names and notes keep the numbering of the source. Where two headings read alike, the source gives them in different places. Ends that are not written are not given here.

T1: Bqt4_(2–140), N-terminal domain of Bqt4 (S. pombe, UniProt O60158 2-140)
T1 chain: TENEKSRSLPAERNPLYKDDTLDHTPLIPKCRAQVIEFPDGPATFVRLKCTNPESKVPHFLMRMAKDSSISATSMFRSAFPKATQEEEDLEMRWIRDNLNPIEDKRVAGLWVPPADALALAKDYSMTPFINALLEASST

T2: Bqt4_(2–140), N-terminal domain of Bqt4 (S. pombe, UniProt O60158 2-140)
T2 construct: Bqt4, S. pombe inner nuclear membrane protein, residues 2-140; also called Bqt4NTD; Bqt4NTD^WT; source: E. coli BL21(DE3), purified (Ni-NTA, on-beads Ulp1 digestion, Superdex200); not shown: His6, N-terminal, cleaved; SUMO, N-terminal, cleaved
T2 sequence (looked up): T1 chain

T3: Bqt4_(2–180) (S. pombe, UniProt O60158 2-180)
T3 chain: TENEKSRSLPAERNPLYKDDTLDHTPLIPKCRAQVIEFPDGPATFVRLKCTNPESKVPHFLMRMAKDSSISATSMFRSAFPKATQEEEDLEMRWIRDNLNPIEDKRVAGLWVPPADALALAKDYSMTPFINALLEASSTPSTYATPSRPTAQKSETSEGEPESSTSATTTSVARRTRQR

T4: Bqt4NTD^F61A (S. pombe, UniProt O60158 2-140, F61A)
T4 sequence: T1 chain with F60A

T5: Bqt4NTD^R48E (S. pombe, UniProt O60158 2-140, R48E)
T5 sequence: T1 chain with R47E

T6: Bqt4NTD D90R (S. pombe, UniProt O60158 2-140, D90 into arginine)
T6 sequence: T1 chain with D89R

T7: Bqt4NTD R33A (S. pombe, UniProt O60158 2-140, R33A)
T7 sequence: T1 chain with R32A

T8: Bqt4_(2–180) (S. pombe, UniProt O60158 2-180)
T8 construct: Bqt4, S. pombe, residues 2-180; also called N-terminal region of Bqt4; source: E. coli BL21(DE3), purified (Ni-NTA, on-beads Ulp1 digestion, Superdex200); not shown: His6, N-terminal, cleaved; SUMO, N-terminal, cleaved
T8 sequence (looked up): T3 chain

B1: FITC-labeled Lem2BBM (peptide, UniProt Q10109 261-279, looked up)
chain: SAEEDDELFQNYVLQQTRK
modifications: also: FITC label, position not given here
notes: also called fluorescent FITC-labeled Lem2BBM; source: E. coli BL21(DE3), purified; labeled with EZLabel Protein FITC Labeling Kit; not shown: GST, N-terminal, cleaved
B2: Rap1_(220-606) (protein)
chain: SVSKSENKALVNNKRYSDSYFYFSKMRRISIDVDYVDEDLNLINAYLSQFGKKRSLNELCALLSRRFSNRHTFSEWRALFMHFFPFINSEGVDPAILSDRETSAMLDETSDNEVADIDDQMIERKYLFSASEPNTVKSTNRLIFSERKAYAADDSIDNTPSKVPIVNSLSDPRTNRPFFYSNPDSMYRSISNPLHLVDSQHLSPLNRKTHFNNPIGQPQFTCLDDHEKTLRETSFRSLDDMSLRKSNSDNIFVKPGEDLEIPLLSDYSDSENISEKSSDDEEAFEKQVTSSYSSPIKVKSQGKSSKGSSGLDVREHEGSDDDAEVFVDRSPESFGATKVAHTSLEGNAASHKKVEENMQQPVTKKQKKYRMVNEEAHTGPTIIIPSD
B3: Rap1_(468-541) (protein)
chain: DNIFVKPGEDLEIPLLSDYSDSENISEKSSDDEEAFEKQVTSSYSSPIKVKSQGKSSKGSSGLDVREHEGSDDD
B4: Rap1_(468-527) (protein)
chain: DNIFVKPGEDLEIPLLSDYSDSENISEKSSDDEEAFEKQVTSSYSSPIKVKSQGKSSKGS
B5: Rap1_(468-519) (protein)
chain: DNIFVKPGEDLEIPLLSDYSDSENISEKSSDDEEAFEKQVTSSYSSPIKVKS
B6: Lem2_(261–279) (peptide, UniProt Q10109 261-279, looked up)
chain: SAEEDDELFQNYVLQQTRK
notes: 3C cleavage leaves extra N-terminal residues; also called Lem2BBM; source: E. coli BL21(DE3), purified (glutathione-Sepharose 4B, on-beads 3C digestion, Superdex75); not shown: GST, N-terminal, cleaved
B7: Rap1_(479–527) (domain or fragment, S. pombe, UniProt Q96TL7 479-527, looked up)
chain: EIPLLSDYSDSENISEKSSDDEEAFEKQVTSSYSSPIKVKSQGKSSKGS
notes: also called Rap1^WT; wild-type Rap1; source: E. coli BL21(DE3), purified (glutathione-Sepharose 4B, on-beads 3C digestion, Superdex75); not shown: GST, N-terminal, cleaved
B8: Rap1_(479–527) (S496E/S497E) (domain or fragment, S. pombe, UniProt Q96TL7 479-527, looked up)
chain: B7 chain with S18E, S19E
notes: phosphomimetic; also called Rap1^S496E/S497E; source: E. coli BL21(DE3), purified (glutathione-Sepharose 4B, on-beads 3C digestion, Superdex75); not shown: GST, N-terminal, cleaved
B9: Rap1_(479–527) S512E/S513E (domain or fragment, S. pombe, UniProt Q96TL7 479-527, looked up)
chain: B7 chain with S34E, S35E
notes: phosphomimetic; also called Rap1^S512E/S513E; source: E. coli BL21(DE3), purified (glutathione-Sepharose 4B, on-beads 3C digestion, Superdex75); not shown: GST, N-terminal, cleaved
B10: Rap1_(479–527) S496E (domain or fragment, S. pombe, UniProt Q96TL7 479-527, looked up)
chain: B7 chain with S18E
notes: phosphomimetic; also called Rap1^S496E; source: E. coli BL21(DE3), purified (glutathione-Sepharose 4B, on-beads 3C digestion, Superdex75); not shown: GST, N-terminal, cleaved
B11: Rap1_(490–513), Bqt4-binding motif of Rap1 (peptide, UniProt Q96TL7 490-513, looked up)
chain: ENISEKSSDDEEAFEKQVTSSYSS
notes: 3C cleavage leaves extra N-terminal residues; also called Rap1BBM; source: E. coli BL21(DE3), purified (glutathione-Sepharose 4B, on-beads 3C digestion, Superdex75); not shown: GST, N-terminal, cleaved
B12: Rap1_(490-541) (protein)
chain: ENISEKSSDDEEAFEKQVTSSYSSPIKVKSQGKSSKGSSGLDVREHEGSDDD
B13: Sad1 (residues 88–101) (peptide, UniProt Q09825 88-101, looked up)
chain: SDNEEFENVVKNGH
notes: Sad1, S. pombe spindle pole body-associated protein, residues 88-101 (14 residues); 3C cleavage leaves extra N-terminal residues; also called Sad1BBM; Sad1_(88–101); source: E. coli BL21(DE3), purified (glutathione-Sepharose 4B, on-beads 3C digestion, Superdex75); not shown: GST, N-terminal, cleaved
B14: Rap1_(403-541) (protein)
chain: DSMYRSISNPLHLVDSQHLSPLNRKTHFNNPIGQPQFTCLDDHEKTLRETSFRSLDDMSLRKSNSDNIFVKPGEDLEIPLLSDYSDSENISEKSSDDEEAFEKQVTSSYSSPIKVKSQGKSSKGSSGLDVREHEGSDDD

Columns and labels:
[1] = biological target: T1, Bqt4_(2–140), N-terminal domain of Bqt4; experiment: ITC
[2] = biological target: T2, Bqt4_(2–140), N-terminal domain of Bqt4; experiment: fluorescence polarisation; 100 nM FITC-labeled Lem2BBM with Bqt4NTD from 20 nM to 50 μM; 25 mM Tris–HCl pH 8.0, 150 mM NaCl, 10% glycerol; 25°C; details: both partners purified
Bqt4_(2–180) [3] = biological target: T3, Bqt4_(2–180); experiment: ITC
[4] = biological target: T1, Bqt4_(2–140), N-terminal domain of Bqt4; experiment: ITC
Bqt4NTD^F61A [5] = biological target: T4, Bqt4NTD^F61A; experiment: ITC
Bqt4NTD^R48E = biological target: T5, Bqt4NTD^R48E; experiment: ITC
[6] = biological target: T2, Bqt4_(2–140), N-terminal domain of Bqt4; experiment: ITC; ITC200; peptide (Rap1 479-527 at 1000–1500 μM) titrated into Bqt4 2-140 (100–150 μM), 20°C, 20 mM Tris–HCl pH 8.0, 150 mM NaCl; one binding site model; two independent experiments; details: both partners purified
[7] = biological target: T2, Bqt4_(2–140), N-terminal domain of Bqt4; experiment: fluorescence polarisation; competition: FITC-labeled Lem2BBM pre-mixed with Bqt4NTD (4°C, 1 h), unlabeled peptides from 10 nM to 200 μM added; 25 mM Tris–HCl pH 8.0, 150 mM NaCl, 10% glycerol; 25°C; details: both partners purified
Bqt4NTD D90R = biological target: T6, Bqt4NTD D90R; experiment: ITC
Bqt4NTD R33A = biological target: T7, Bqt4NTD R33A; experiment: ITC
Bqt4NTD^F61A [8] = biological target: T4, Bqt4NTD^F61A; experiment: ITC; remark: listed apart in the source
[9] = biological target: T1, Bqt4_(2–140), N-terminal domain of Bqt4; experiment: ITC
[10] = biological target: T1, Bqt4_(2–140), N-terminal domain of Bqt4; experiment: ITC
[11] = biological target: T1, Bqt4_(2–140), N-terminal domain of Bqt4; experiment: FP; competition with FITC-Lem2BBM
Bqt4_(2–180) [12] = biological target: T8, Bqt4_(2–180); experiment: ITC; ITC200; peptide (Rap1 479-527 at 1000–1500 μM) titrated into Bqt4 2-140 (100–150 μM), 20°C, 20 mM Tris–HCl pH 8.0, 150 mM NaCl; one binding site model; two independent experiments; details: both partners purified

| Binder | Kd (Bqt4_(2–180) [3]) [µM] | Kd [4] [µM] | Kd [10] [µM] | also measured |
| --- | --- | --- | --- | --- |
| SESSSPYSEVDSAEEDDELFQNYVLQQTRK [Lem2_(250-279)] | – | – | – | Kd [1]: 0.34 µM |
| B1 | – | – | – | Kd [2]: 0.61 µM |
| B2 | 12.9 | 13.7 | – | – |
| B3 | 7.9 | 5.7 | – | – |
| B4 | 8.7 | 5.8 | – | – |
| B5 | 10.8 | 6.6 | – | – |
| B6 | – | – | – | Kd (Bqt4NTD^F61A [5]): 46 µM; Kd (Bqt4NTD^R48E): 3.2 µM; Kd [6]: ~0.53 µM; IC50 [7]: 1.2 µM |
| B7 | – | – | – | Kd (Bqt4NTD D90R): 14.4 µM; Kd (Bqt4NTD R33A): 12.3 µM; Kd (Bqt4NTD^F61A [8]): 909 µM; Kd [9]: 11.4 µM; fold by which the Bqt4-Lem2 interaction is stronger than this pair [6]: 20 fold; IC50 [7]: 50.9 µM |
| EIPLLSDYSDSENISEKAADDEEAFEKQVTSSYSSPIKVKSQGKSSKGS [Rap1_(479-527) S496A/S497A] | – | – | 8 | – |
| EIPLLSDYSDSENISEKASDDEEAFEKQVTSSYSSPIKVKSQGKSSKGS [Rap1_(479-527) S496A] | – | – | 10.6 | – |
| EIPLLSDYSDSENISEKSADDEEAFEKQVTSSYSSPIKVKSQGKSSKGS [Rap1_(479-527) S497A] | – | – | 9.5 | – |
| EIPLLSDYSDSENISEKSSDDEEAFEKQVTSSYASPIKVKSQGKSSKGS [Rap1_(479-527) S512A] | – | – | 7.1 | – |
| EIPLLSDYSDSENISEKSSDDEEAFEKQVTSSYESPIKVKSQGKSSKGS (domain or fragment) [Rap1_(479–527) S512E] | – | – | 27.2 | – |
| EIPLLSDYSDSENISEKSSDDEEAAEKQVTSSYSSPIKVKSQGKSSKGS (domain or fragment) [Rap1_(479–527) F503A] | – | – | – | Kd [9]: 106 µM |
| EIPLLSDYSDSENISEKSSDDEEAFEKQVTSSYAAPIKVKSQGKSSKGS [Rap1_(479-527) S512A/S513A] | – | – | 7.3 | – |
| EIPLLSDYSDSENISEKSSDDEEAFEKQATSSYSSPIKVKSQGKSSKGS (domain or fragment) [Rap1_(479–527) V507A] | – | – | – | Kd [9]: 138 µM |
| EIPLLSDYSDSENISEKSSDAAEAFEKQVTSSYSSPIKVKSQGKSSKGS (domain or fragment) [Rap1_(479–527) D499A/E500A] | – | – | – | Kd [9]: 862 µM |
| EIPLLSDYSDSENISEKSSDDEEAFEKQVTSSYSAPIKVKSQGKSSKGS [Rap1_(479-527) S513A] | – | – | 7.9 | – |
| B8 | – | – | 0.9 | IC50 [11]: 6.8 µM; fold increase in binding affinity against wild-type Rap1 [6]: 10 fold |
| B9 | – | – | 115 | IC50 [11]: > 200 µM; fold decrease in binding affinity against wild-type Rap1 [6]: 10 fold |
| B10 | – | – | 2.4 | binding result [6]: binds |
| B11 | 11 | 11.4 | – | binding result [6]: binds; binding result (Bqt4_(2–180) [12]): binds |
| B12 | 9.7 | 8.3 | – | – |
| KSSDDEEAFEKQVTSSYSSPIKVKSQGKSSKGS [Rap1_(495-527)] | 15.3 | 14.7 | – | – |
| B13 | – | – | – | Kd (Bqt4NTD^R48E): 262 µM; Kd [6]: 3.7 µM |
| B14 | 5.4 | 4.8 | – | – |
